According to patent US20200131249A1 (EVOLVERITAS KFT, published 2020):
Changes are numbered by the printed parent chain. Where no end group is shown, it is not given here.

B1: protein according to SEQ ID NO: 11 (TFPI-D2 variant with the inhibitor loop FCRAVKR) (designed binder)
chain: KPDFCFLEEDPGFCRAVKRRYFYNNQTKQCERFKYGGCLGNMNNFETLEECKNICEDG
modifications: ends and bridges not checked; cysteine pairing not given here
notes: Made in E. coli as a His6-S100A4 fusion and freed by TEV protease
B2: protein according to SEQ ID NO: 14 (TFPI-D2 variant with the inhibitor loop PCRAVKR) (designed binder)
chain: B1 chain with F13P
modifications: ends and bridges not checked; cysteine pairing not given here
notes: Made as m1
B3: rat MASP-2 catalytic fragment CCP1-CCP2-SP (enzyme)
chain: MTQPCPDPTAPPNGHISPVQATYVLKDSFSVFCKTGFELLQGSVPLKSFTAVCQKDGSWDRPIPECSIIDCGPPDDLPNGHVDYITGPEVTTYKAVIQYSCEETFYTMSSNGKYVCEADGFWTSSKGEKSLPVCKPVCGLSTHTSGGRIIGGQPAKPGDFPWQVLLLGETTAAGALIHDDWVLTAAHAVYGKTEAMSSLDIRMGILKRLSPHYTQAWPEAVFIHEGYTHGAGFDNDIALIKLKNKVTINRNIMPICLPRKEAASLMKTDFVGTVAGWGLTQKGFLARNLMFVDIPIVDHQKCATAYTKQPYPGAKVTVNMLCAGLDAGGKDSCRGDSGGALVFLDNETQRWFVGGIVSWGSINCGGSEQYGVYTKVTNYIPWIENIINNF
notes: Mw 42309 Da; also called rat MASP-2cf; MASP2cf
B4: protein according to SEQ ID NO: 17 (TFPI-D2 variant with the inhibitor loop VCRAVKR) (designed binder)
chain: B1 chain with F13V
modifications: ends and bridges not checked; cysteine pairing not given here
notes: Made as m1

Assays:
[1] = molecular target: T1, human MASP-3 catalytic fragment CCP1-CCP2-SP (human, UniProt P48740-2 298-728, limits assumed); experiment: enzyme inhibition, Z-L-Lys-SBzl/DTNB, catalytic fragment
T1 construct: domain: CCP1-CCP2-SP
T1 sequence (looked up): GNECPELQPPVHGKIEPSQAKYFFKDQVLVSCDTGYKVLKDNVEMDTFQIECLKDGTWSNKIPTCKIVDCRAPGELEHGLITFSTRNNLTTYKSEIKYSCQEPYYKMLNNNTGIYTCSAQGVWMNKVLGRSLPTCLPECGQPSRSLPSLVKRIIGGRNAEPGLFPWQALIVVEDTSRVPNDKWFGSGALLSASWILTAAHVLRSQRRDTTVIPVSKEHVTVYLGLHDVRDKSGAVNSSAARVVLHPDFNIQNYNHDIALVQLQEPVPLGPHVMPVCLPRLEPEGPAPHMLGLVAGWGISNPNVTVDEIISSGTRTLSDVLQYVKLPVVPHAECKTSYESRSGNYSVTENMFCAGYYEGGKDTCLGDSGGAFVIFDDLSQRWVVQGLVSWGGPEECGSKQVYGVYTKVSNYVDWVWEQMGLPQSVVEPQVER
Description: (§1) For determining the KI of the inhibitors on MASP enzymes we used catalytic enzyme fragments containing the three C-terminal domains: CCP1-CCP2-SP. The synthetic substrate used in the measurements was Z-L-Lys-SBzl hydrochloride (Sigma, C3647), from which a 10 mM stock solution was prepared. The reactions were performed in a volume of 0.2 ml at room temperature in a buffer consisting of 20 mM HEPES; 145 mM NaCl; 5 mM CaCl₂; 0.05% Triton-X100. The substrate cleaved by the enzyme entered into a reaction with the 5,5′-Dithiobis(2-nitrobenzoic acid) (DTNB, Ellman's reagent, Sigma—D8130) auxiliary substrate present in the solution in 2-fold excess to Z-L-Lys-SBzl. The release of the chromophore group created in this way was monitored via the change of absorbance at 410 nm using a BioTek Synergy H4 multimode microplate reader.
(§2) A dilution sequence was prepared from the individual inhibitors, the enzyme was added to it, and it was incubated for 2 hours at room temperature. The samples were transferred on a 96-well microtiter plate (Nunc 269620). The reactions were started by adding the mixture of the substrate and the auxiliary substrate to the samples. The concentration of the substrate and the length of the measuring period were chosen so that under the given conditions the enzyme should consume less than 10% of the substrate. In this case we used 250 μM Z-L-Lys-SBzl and 500 μM DTNB in the reactions. In the course of measuring, a method developed for the characterisation of tight-binding inhibitors was used (Empie, 1982). The concentration of the product was measured as a function of reaction time. The slope of the straight line determined for the initial phase of the reaction was normalised with the slope obtained for the uninhibited enzyme reaction, and this value was multiplied with the total enzyme concentration. As a result of this we obtained the free enzyme concentration, which was plotted as a function of the total inhibitor concentration and the Ki value was determined according to the following equation: […]

[2] = molecular target: T2, human MASP-1 catalytic fragment CCP1-CCP2-SP (human, UniProt P48740 298-699, limits assumed); experiment: as above
T2 construct: domain: CCP1-CCP2-SP
T2 sequence (looked up): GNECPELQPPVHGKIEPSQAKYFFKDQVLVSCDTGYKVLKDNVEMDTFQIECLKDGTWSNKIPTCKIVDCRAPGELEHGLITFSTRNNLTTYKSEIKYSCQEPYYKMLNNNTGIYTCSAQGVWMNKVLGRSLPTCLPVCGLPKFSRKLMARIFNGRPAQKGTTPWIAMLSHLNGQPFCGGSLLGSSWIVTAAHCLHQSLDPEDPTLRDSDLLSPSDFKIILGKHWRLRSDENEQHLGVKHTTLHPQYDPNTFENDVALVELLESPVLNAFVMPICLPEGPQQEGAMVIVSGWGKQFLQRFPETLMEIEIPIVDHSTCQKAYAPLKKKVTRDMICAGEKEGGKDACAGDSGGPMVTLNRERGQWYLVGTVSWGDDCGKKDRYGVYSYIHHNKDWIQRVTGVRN
Description: as §1, §2

[3] = molecular target: T3, human MASP-2 enzyme as present in normal human serum (human, UniProt O00187 16-686); experiment: cell-based or functional assay
T3 sequence (O00187 16-686 limits assumed): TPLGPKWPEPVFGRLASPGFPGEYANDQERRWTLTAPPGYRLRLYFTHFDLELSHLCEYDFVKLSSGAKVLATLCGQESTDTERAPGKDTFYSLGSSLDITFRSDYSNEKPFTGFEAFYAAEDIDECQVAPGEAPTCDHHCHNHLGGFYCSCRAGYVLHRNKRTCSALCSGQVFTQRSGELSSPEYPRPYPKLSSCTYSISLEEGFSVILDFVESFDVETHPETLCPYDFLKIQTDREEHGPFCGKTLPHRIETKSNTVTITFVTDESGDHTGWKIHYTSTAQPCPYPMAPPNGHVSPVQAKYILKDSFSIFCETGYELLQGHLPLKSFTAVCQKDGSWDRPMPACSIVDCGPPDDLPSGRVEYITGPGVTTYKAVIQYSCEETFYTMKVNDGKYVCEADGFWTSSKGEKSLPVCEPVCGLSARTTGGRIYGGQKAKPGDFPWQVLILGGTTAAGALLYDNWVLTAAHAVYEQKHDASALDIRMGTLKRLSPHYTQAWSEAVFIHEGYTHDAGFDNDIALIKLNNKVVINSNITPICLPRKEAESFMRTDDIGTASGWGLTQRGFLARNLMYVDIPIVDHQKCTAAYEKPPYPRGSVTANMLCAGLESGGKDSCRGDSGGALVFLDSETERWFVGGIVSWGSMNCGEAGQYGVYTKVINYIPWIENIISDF

[4] = molecular target: T4, human MASP-2 catalytic fragment CCP1-CCP2-SP (human, UniProt O00187 287-686, limits assumed); experiment: ratio of Ki values, enzyme inhibition
T4 construct: domain: CCP1-CCP2-SP; also called human MASP-2cf; human MASP2cf
T4 sequence (O00187 287-686 limits assumed): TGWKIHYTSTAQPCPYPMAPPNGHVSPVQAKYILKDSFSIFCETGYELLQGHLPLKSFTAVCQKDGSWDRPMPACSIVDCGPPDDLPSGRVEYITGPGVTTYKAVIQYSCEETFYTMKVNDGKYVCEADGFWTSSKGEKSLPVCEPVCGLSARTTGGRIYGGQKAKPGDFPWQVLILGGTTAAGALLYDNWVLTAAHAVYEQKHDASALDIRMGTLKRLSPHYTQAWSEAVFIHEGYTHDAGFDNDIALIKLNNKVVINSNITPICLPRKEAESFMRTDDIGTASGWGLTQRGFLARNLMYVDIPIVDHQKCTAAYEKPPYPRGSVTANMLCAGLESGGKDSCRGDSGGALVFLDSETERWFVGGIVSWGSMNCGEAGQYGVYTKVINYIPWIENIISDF
Description: as §1, §2

[5] = molecular target: bovine trypsin (Sigma-T1426) (bovine, UniProt P00760 24-246); experiment: fluorometric residual activity, Z-Gly-Pro-Arg-AMC, tight-binding fit
Chain of bovine trypsin (Sigma-T1426) (P00760 24-246): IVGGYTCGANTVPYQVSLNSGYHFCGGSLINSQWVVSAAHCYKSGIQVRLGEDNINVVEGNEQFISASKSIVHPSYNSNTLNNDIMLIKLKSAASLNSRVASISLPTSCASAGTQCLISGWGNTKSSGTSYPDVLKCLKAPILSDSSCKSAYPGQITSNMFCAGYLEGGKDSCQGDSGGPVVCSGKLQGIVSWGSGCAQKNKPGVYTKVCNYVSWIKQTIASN
Description: The KI values of the inhibitors on bovine trypsin were also determined. In these experiments, we used bovine trypsin (Sigma—T1426). The concentration of trypsin was determined by fluorescent active-site titration based on Jameson 1973. The measurements were done in 200 μL final assay volume of 50 mM Tris, 10 mM CaCl2, 0.005% Triton X-100 pH 8.0 buffer on 96-well black microtiter plates (Thermo Scientific Sterilin—611F96BK) using a BioTek Synergy H4 multimode microplate reader.
Constant predefined concentrations of the enzymes were mixed with serial dilutions of the inhibitors and co-incubated at room temperature until reaching equilibrium. The incubation times were 5 h in the case of the protein according to SEQ ID NO: 11, 8 h in the case of TFPI-D2 and the protein according to SEQ ID NO: 17 and 24 h in the case of the protein according to SEQ ID NO: 14. Then, 10 μM (final concentration) of Z-Gly-Pro-Arg-AMC substrate was added to the samples. The concentration of the free enzyme was determined through measuring the residual enzyme activity in a fluorometric kinetic assay at 380 nm excitation wavelength and 460 nm emission wavelength in two parallel experiments. Analyses of the data were done as described above.

[6] = molecular target: B3; experiment: enzyme inhibition, Z-L-Lys-SBzl/DTNB, tight-binding fit, catalytic fragment CCP1-CCP2-SP
Description: as §1, §2
(§3) where E is the free (uninhibited) enzyme concentration, and E₀ is the total enzyme concentration. The stock concentration of the inhibitors was determined by titration with bovine trypsin of known concentration. The results were calculated as the average of parallel measurements.

[7] = molecular target: T4, human MASP-2 catalytic fragment …; experiment: as above
Description: as §1, §2, §3

[8] = molecular target: rat MASP-2 as present in rat serum (rat, UniProt Q9JJS8 20-685); experiment: cell-based or functional assay
[9] = molecular target: B3; experiment: ratio of Ki values, enzyme inhibition
Description: as §1, §2

[10] = molecular target: T1, human MASP-3 catalytic fragment …; experiment: enzyme inhibition, Z-L-Lys-SBzl/DTNB, catalytic fragment; approximation based on a single measurement
Description: as §1
A dilution sequence was prepared from the individual inhibitors, the enzyme was added to it, and it was incubated for 2 hours at room temperature. The samples were transferred on a 96-well microtiter plate (Nunc 269620). […] The concentration of the product was measured as a function of reaction time. The slope of the straight line determined for the initial phase of the reaction was normalised with the slope obtained for the uninhibited enzyme reaction, and this value was multiplied with the total enzyme concentration. […]

[11] = molecular target: T5, TFPI-D2, second Kunitz domain (residues 121-178) of human Tissue Factor Pathway Inhibitor-1 (human, UniProt P10646 121-178); experiment: enzyme inhibition
T5 construct: Recombinant, made as m1; also called parental TFPI-D2; human TFPI-D2
T5 sequence: B1 chain with F13I, A16G, V17Y, K18I, R19T

[12] = molecular target: T3, human MASP-2 enzyme as present in …; experiment: cell-based or functional assay; remark: listed apart in the source

Binder	binding result [1]	binding result [2]	IC50 (nM), lectin pathway activity in diluted human serum (WIELISA, C5b-9) [3]	fold more potent than SGMI-2 [4]	Ki [5]	Ki [6]	Ki [7]	IC50 (nM), C3 deposition, lectin pathway in diluted rat serum on mannan [8]	IC50 (nM), C4 deposition, lectin pathway in diluted rat serum on mannan [8]	IC50 (nM), C5b-9 deposition, lectin pathway in diluted rat serum on mannan [8]	fold higher binding affinity than human TFPI-D2 [9]	fold more potent than SGMI-2 [9]	fold reduction of binding affinity against the protein of SEQ ID NO: 11 [4]	Ki [10]	binding result [11]	fold of the lectin pathway IC50 against SGMI-2 [12]
B1	no binding	no binding	35 nM	3 fold	0.094 nM	640 nM	2 nM									
B2		no binding	90 nM		0.004 nM	7.2 nM	7.9 nM	869 nM	108 nM	940 nM	25 fold	~3 fold	4 fold	~30000 nM		
B3															binds	
B4	no binding	no binding	380 nM		0.017 nM	7.5 nM	36.7 nM				25 fold	~3 fold	18 fold			2 fold
GSGEVTCEPGTTFKDKCNTCRCGSDGKSAVCTKLWCNQ (designed binder, Comparator from WO 2012/007777) [SGMI-2 (SGCI-based MASP inhibitor 2)]		no binding	174 nM		100 nM	22.7 nM	8.1 nM	2240 nM	457 nM	4000 nM						
